From the supplement of paper PMC6755084

Test system: F1*sub RNA substrate (template-directed ligation)
Experiment: fraction ligated after 30 min (ligated reads / total reads); higher = more ligase activity; sequences stand for … in GAGACCGCAACTGAAAAGTTGT…AGTTCTGCACGTAGAAGCAAAAGGC
Settings: 42 °C
Method: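 Chip-synthesised pool of F1* ligase ribozyme variants (all single and double substitutions, single, double and triple deletions in the catalytic core and GAA bulge, plus designed variants) was transcribed with T7 and reacted as a pool with excess substrate F1*sub for 30 min at 42 C in 50 mM EPPS pH 8.5, 25 mM MgCl2. Ligated and unligated bands were separated by PAGE, barcoded by RT and deep sequenced; fraction ligated = ligated reads / total reads per variant, relative activity = FL / FL of wild type (0.826). Sequences are the DNA template of the ribozyme.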

| Sequence | fraction ligated |
| --- | --- |
| ATCACTTGTCGAAGACACTTGGATGGGTTGA [3d191] | 0.728 |
| ATCACTTGTCGAAGACACTTTGATGGGTTGA [3d192] | 0.655 |
| ATCACTTGTCGAAGACACTTTGGAGGGTTGA [3d194] | 0.128 |
| ATCACTTGTCGAAGACACTTTGGATGGGTTA [3d196] | 0.707 |
| ATCACTTGTCGAAGACACTTTGGATGGGTTG [3d197] | 0.795 |
| ATCACTTGTCGAAGACACTTTGGATGGGTTGA [2d11] | 0.777 |
| ATCACTTGTCGAAGACACTTTGGATGGTTGA [3d195] | 0.714 |
| ATCACTTGTCGAAGACACTTTGGTGGGTTGA [3d193] | 0.0564 |
| ATCACTTGTCGAAGACATTTGGATGGGTTGA [3d190] | 0.762 |
| ATCACTTGTCGAAGACCTTTGGATGGGTTGA [3d189] | 0.75 |
| ATCACTTGTCGAAGCACTTTGGATGGGTTGA [3d187] | 0.736 |
| ATCACTTGTCGAGACACTTTGGATGGGTTGA [3d185] | 0.757 |
| ATCACTTGTCGTAAAACTTTGGATGGGTTGA [3d211] | 0.768 |
| ATCACTTGTCGTAAACACTTGGATGGGTTGA [3d214] | 0.742 |
| ATCACTTGTCGTAAACACTTTGATGGGTTGA [3d215] | 0.521 |
| ATCACTTGTCGTAAACACTTTGGAGGGTTGA [3d217] | 0.0797 |
| ATCACTTGTCGTAAACACTTTGGATGGGTTA [3d219] | 0.54 |
| ATCACTTGTCGTAAACACTTTGGATGGGTTG [3d220] | 0.75 |
| ATCACTTGTCGTAAACACTTTGGATGGGTTGA [2d13] | 0.78 |
| ATCACTTGTCGTAAACACTTTGGATGGTTGA [3d218] | 0.557 |
| ATCACTTGTCGTAAACACTTTGGTGGGTTGA [3d216] | 0.0249 |
| ATCACTTGTCGTAAACATTTGGATGGGTTGA [3d213] | 0.777 |

| Sequence | fraction ligated |
| --- | --- |
| ATCACTTGTCGTAAACCTTTGGATGGGTTGA [3d212] | 0.758 |
| ATCACTTGTCGTAACACTTTGGATGGGTTGA [3d199] | 0.779 |
| ATCACTTGTCGTAAGAACTTGGATGGGTTGA [3d232] | 0.751 |
| ATCACTTGTCGTAAGAACTTTGATGGGTTGA [3d233] | 0.533 |
| ATCACTTGTCGTAAGAACTTTGGAGGGTTGA [3d235] | 0.0738 |
| ATCACTTGTCGTAAGAACTTTGGATGGGTTA [3d237] | 0.351 |
| ATCACTTGTCGTAAGAACTTTGGATGGGTTG [3d238] | 0.794 |
| ATCACTTGTCGTAAGAACTTTGGATGGGTTGA [2d15] | 0.821 |
| ATCACTTGTCGTAAGAACTTTGGATGGTTGA [3d236] | 0.273 |
| ATCACTTGTCGTAAGAACTTTGGTGGGTTGA [3d234] | 0.0239 |
| ATCACTTGTCGTAAGAATTTGGATGGGTTGA [3d231] | 0.757 |
| ATCACTTGTCGTAAGACACTGGATGGGTTGA [3d253] | 0.701 |
| ATCACTTGTCGTAAGACACTTGATGGGTTGA [3d254] | 0.164 |
| ATCACTTGTCGTAAGACACTTGGAGGGTTGA [3d256] | 0.0205 |
| ATCACTTGTCGTAAGACACTTGGATGGGTTA [3d258] | 0.214 |
| ATCACTTGTCGTAAGACACTTGGATGGGTTG [3d259] | 0.687 |
| ATCACTTGTCGTAAGACACTTGGATGGGTTGA [2d18] | 0.761 |
| ATCACTTGTCGTAAGACACTTGGATGGTTGA [3d257] | 0.216 |
| ATCACTTGTCGTAAGACACTTGGTGGGTTGA [3d255] | 0.00771 |
| ATCACTTGTCGTAAGACACTTTATGGGTTGA [3d260] | 0.0125 |
| ATCACTTGTCGTAAGACACTTTGAGGGTTGA [3d262] | 0.0273 |
| ATCACTTGTCGTAAGACACTTTGATGGGTTA [3d264] | 0.0628 |

| Sequence | fraction ligated |
| --- | --- |
| ATCACTTGTCGTAAGACACTTTGATGGGTTG [3d265] | 0.518 |
| ATCACTTGTCGTAAGACACTTTGATGGGTTGA [2d19] | 0.702 |
| ATCACTTGTCGTAAGACACTTTGATGGTTGA [3d263] | 0.0782 |
| ATCACTTGTCGTAAGACACTTTGGAGGGTTA [3d271] | 0.0188 |
| ATCACTTGTCGTAAGACACTTTGGAGGGTTG [3d272] | 0.094 |
| ATCACTTGTCGTAAGACACTTTGGAGGGTTGA [2d21] | 0.189 |
| ATCACTTGTCGTAAGACACTTTGGAGGTTGA [3d270] | 0.0103 |
| ATCACTTGTCGTAAGACACTTTGGATGGGTT [3d275] | 0.392 |
| ATCACTTGTCGTAAGACACTTTGGATGGGTTA [2d23] | 0.747 |
| ATCACTTGTCGTAAGACACTTTGGATGGGTTG [2d24] | 0.769 |
| ATCACTTGTCGTAAGACACTTTGGATGGGTTGA [1d1] | 0.781 |
| ATCACTTGTCGTAAGACACTTTGGATGGTTA [3d273] | 0.68 |
| ATCACTTGTCGTAAGACACTTTGGATGGTTG [3d274] | 0.691 |
| ATCACTTGTCGTAAGACACTTTGGATGGTTGA [2d22] | 0.76 |
| ATCACTTGTCGTAAGACACTTTGGATGTGGTTGA [s38] | 0.693 |
| ATCACTTGTCGTAAGACACTTTGGGGGTTGA [3d266] | 0.0143 |
| ATCACTTGTCGTAAGACACTTTGGTGGGTTA [3d268] | 0.00829 |
| ATCACTTGTCGTAAGACACTTTGGTGGGTTG [3d269] | 0.0136 |
| ATCACTTGTCGTAAGACACTTTGGTGGGTTGA [2d20] | 0.0391 |
| ATCACTTGTCGTAAGACACTTTGGTGGTTGA [3d267] | 0.0134 |
| ATCACTTGTCGTAAGACACTTTGTGGGTTGA [3d261] | 0.0128 |
| ATCACTTGTCGTAAGACATTGGATGGGTTGA [3d246] | 0.739 |

| Sequence | fraction ligated |
| --- | --- |
| ATCACTTGTCGTAAGACATTTGATGGGTTGA [3d247] | 0.0818 |
| ATCACTTGTCGTAAGACATTTGGAGGGTTGA [3d249] | 0.0168 |
| ATCACTTGTCGTAAGACATTTGGATGGGTTA [3d251] | 0.66 |
| ATCACTTGTCGTAAGACATTTGGATGGGTTG [3d252] | 0.739 |
| ATCACTTGTCGTAAGACATTTGGATGGGTTGA [2d17] | 0.78 |
| ATCACTTGTCGTAAGACATTTGGATGGTTGA [3d250] | 0.445 |
| ATCACTTGTCGTAAGACATTTGGTGGGTTGA [3d248] | 0.00393 |
| ATCACTTGTCGTAAGACCTTGGATGGGTTGA [3d239] | 0.716 |
| ATCACTTGTCGTAAGACCTTTGATGGGTTGA [3d240] | 0.311 |
| ATCACTTGTCGTAAGACCTTTGGAGGGTTGA [3d242] | 0.04 |
| ATCACTTGTCGTAAGACCTTTGGATGGGTTA [3d244] | 0.645 |
| ATCACTTGTCGTAAGACCTTTGGATGGGTTG [3d245] | 0.706 |
| ATCACTTGTCGTAAGACCTTTGGATGGGTTGA [2d16] | 0.741 |
| ATCACTTGTCGTAAGACCTTTGGATGGTTGA [3d243] | 0.712 |
| ATCACTTGTCGTAAGACCTTTGGTGGGTTGA [3d241] | 0.0169 |
| ATCACTTGTCGTAAGACTTTGGATGGGTTGA [3d221] | 0.727 |
| ATCACTTGTCGTAAGCACTTGGATGGGTTGA [3d224] | 0.716 |
| ATCACTTGTCGTAAGCACTTTGATGGGTTGA [3d225] | 0.393 |
| ATCACTTGTCGTAAGCACTTTGGAGGGTTGA [3d227] | 0.0599 |
| ATCACTTGTCGTAAGCACTTTGGATGGGTTA [3d229] | 0.34 |
| ATCACTTGTCGTAAGCACTTTGGATGGGTTG [3d230] | 0.731 |
| ATCACTTGTCGTAAGCACTTTGGATGGGTTGA [2d14] | 0.782 |

| Sequence | fraction ligated |
| --- | --- |
| ATCACTTGTCGTAAGCACTTTGGATGGTTGA [3d228] | 0.195 |
| ATCACTTGTCGTAAGCACTTTGGTGGGTTGA [3d226] | 0.0296 |
| ATCACTTGTCGTAAGCATTTGGATGGGTTGA [3d223] | 0.731 |
| ATCACTTGTCGTAAGCCTTTGGATGGGTTGA [3d222] | 0.744 |
| ATCACTTGTCGTAGAACTTTGGATGGGTTGA [3d201] | 0.867 |
| ATCACTTGTCGTAGACACTTGGATGGGTTGA [3d204] | 0.74 |
| ATCACTTGTCGTAGACACTTTGATGGGTTGA [3d205] | 0.715 |
| ATCACTTGTCGTAGACACTTTGGAGGGTTGA [3d207] | 0.211 |
| ATCACTTGTCGTAGACACTTTGGATGGGTTA [3d209] | 0.728 |
| ATCACTTGTCGTAGACACTTTGGATGGGTTG [3d210] | 0.782 |
| ATCACTTGTCGTAGACACTTTGGATGGGTTGA [2d12] | 0.789 |
| ATCACTTGTCGTAGACACTTTGGATGGTTGA [3d208] | 0.766 |
| ATCACTTGTCGTAGACACTTTGGTGGGTTGA [3d206] | 0.0928 |
| ATCACTTGTCGTAGACATTTGGATGGGTTGA [3d203] | 0.731 |
| ATCACTTGTCGTAGACCTTTGGATGGGTTGA [3d202] | 0.767 |
| ATCACTTGTCGTAGCACTTTGGATGGGTTGA [3d200] | 0.749 |
| ATCACTTGTCGTGACACTTTGGATGGGTTGA [3d198] | 0.746 |
| ATCACTTGTCTAAACACTTTGGATGGGTTGA [3d173] | 0.77 |
| ATCACTTGTCTAAGAACTTTGGATGGGTTGA [3d175] | 0.728 |
| ATCACTTGTCTAAGACACTTGGATGGGTTGA [3d178] | 0.73 |
| ATCACTTGTCTAAGACACTTTGATGGGTTGA [3d179] | 0.594 |
